Key:
Conditions in all cases: remark: other sources report otherwise
[1] = target: T1, recombinant soluble homotrimeric HA of A/Japan/305/57 (H2N2) (Influenza A virus A/Japan/305/1957(H2N2)); test: HA microarray, BCC supernatant
[2] = target: recombinant soluble homotrimeric HA of A/Netherlands/219/03 (H7N7) (Influenza A virus A/Netherlands/219/03(H7N7)); test: HA microarray, BCC supernatant
[3] = target: T2, recombinant soluble homotrimeric HA of A/Vietnam/1203/04 (H5N1) (Influenza A virus A/VietNam/1203/2004(H5N1)); test: HA microarray, BCC supernatant
[4] = target: T3, recombinant soluble homotrimeric HA of A/Wisconsin/67/05 (H3N2) (Influenza A virus A/Wisconsin/67/2005(H3N2)); test: HA microarray, BCC supernatant
[5] = target: T4, recombinant soluble homotrimeric HA of A/chicken/Vietnam/NCVD-016/08 (H5N1) (Influenza A virus A/chicken/Vietnam/NCVD-016/2008(H5N1)); test: HA microarray, BCC supernatant
[6] = target: recombinant homotrimeric HA A/California/4/09 H1N1 (Influenza A virus A/California/04/2009(H1N1)); test: protein microarray, purified IgG, trimeric HA
[7] = target: recombinant homotrimeric HA A/Egypt/3300-NAMRU3/08 H5N1 (Influenza A virus A/Egypt/3300-NAMRU3/2008(H5N1)); test: protein microarray, purified IgG, trimeric HA
[8] = target: recombinant homotrimeric HA A/Hong Kong/2108/03 H9N2 (Influenza A virus A/HK/2108/2003(H9N2)); test: protein microarray, purified IgG, trimeric HA
[9] = target: recombinant homotrimeric HA A/Indonesia/5/05 H5N1 (Influenza A virus A/Indonesia/5/2005(H5N1)); test: protein microarray, purified IgG, trimeric HA
[10] = target: recombinant homotrimeric HA A/Japan/305/57 H2N2 (Influenza A virus A/Japan/305/1957(H2N2)); test: protein microarray, purified IgG, trimeric HA
[11] = target: recombinant homotrimeric HA A/Netherlands/219/03 H7N7 (Influenza A virus A/Netherlands/219/03(H7N7)); test: protein microarray, purified IgG, trimeric HA
[12] = target: recombinant homotrimeric HA A/South Carolina/1/18 H1N1 (Influenza A virus A/South Carolina/1/18 (H1N1)); test: protein microarray, purified IgG, trimeric HA
[13] = target: recombinant homotrimeric HA A/Wisconsin/67/05 H3N2 (Influenza A virus A/Wisconsin/67/2005(H3N2)); test: protein microarray, purified IgG, trimeric HA
[14] = target: recombinant homotrimeric HA A/chicken/Vietnam/NCVD-016/08 H5N1 (Influenza A virus A/chicken/Vietnam/NCVD-016/2008(H5N1)); test: protein microarray, purified IgG, trimeric HA
[15] = target: recombinant homotrimeric HA A/duck/Yangzhou/02/05 H8N4 (Influenza A virus A/duck/Yangzhou/02/2005(H8N4)); test: protein microarray, purified IgG, trimeric HA
[16] = target: T1, recombinant soluble homotrimeric HA of …; test: trimeric HA microarray, transfection supernatant set 5
[17] = target: recombinant soluble homotrimeric HA of A/South Carolina/1/18 (H1N1) (Influenza A virus A/South Carolina/1/18 (H1N1)); test: as above
[18] = target: T2, recombinant soluble homotrimeric HA of …; test: as above
[19] = target: T3, recombinant soluble homotrimeric HA of …; test: as above
[20] = target: T4, recombinant soluble homotrimeric HA of …; test: as above
[21] = target: recombinant soluble homotrimeric HA of A/duck/Yangzhou/02/05 (H8N4) (Influenza A virus A/duck/Yangzhou/02/2005(H8N4)); test: as above
[22] = target: recombinant soluble homotrimeric HA of A/swine/Ontario/01911-2/99 (H4N6) (Influenza A virus A/Swine/Ontario/01911-2/99 (H4N6)); test: as above
[23] = target: recombinant soluble homotrimeric HA of A/California/4/09 (H1N1) (Influenza A virus A/California/04/2009(H1N1)); test: HA microarray, BCC supernatant
[24] = target: recombinant soluble homotrimeric HA of A/Solomon Islands/3/06 (H1N1) (Influenza A virus A/Solomon Islands/3/2006(H1N1)); test: HA microarray, BCC supernatant
[25] = target: recombinant soluble homotrimeric HA of A/northern shoveler/California/HKWF115/07 (H6) (Influenza A virus A/northern shoveler/California/HKWF115/2007(H6N1)); test: HA microarray, BCC supernatant
[26] = target: recombinant soluble homotrimeric HA, A/California/4/09 H1N1 (Influenza A virus A/California/04/2009(H1N1)); test: microarray, transfection SN IgG, trimeric HA
[27] = target: recombinant soluble homotrimeric HA, A/Egypt/3300-NAMRU3/08 H5N1 (Influenza A virus A/Egypt/3300-NAMRU3/2008(H5N1)); test: microarray, transfection SN IgG, trimeric HA
[28] = target: recombinant soluble homotrimeric HA, A/Japan/305/57 H2N2 (Influenza A virus A/Japan/305/1957(H2N2)); test: microarray, transfection SN IgG, trimeric HA
[29] = target: recombinant soluble homotrimeric HA, A/Netherlands/219/03 H7N7 (Influenza A virus A/Netherlands/219/03(H7N7)); test: microarray, transfection SN IgG, trimeric HA
[30] = target: recombinant soluble homotrimeric HA, A/Solomon Islands/3/06 H1N1 (Influenza A virus A/Solomon Islands/3/2006(H1N1)); test: microarray, transfection SN IgG, trimeric HA
[31] = target: recombinant soluble homotrimeric HA, A/South Carolina/1/18 H1N1 (Influenza A virus A/South Carolina/1/18 (H1N1)); test: microarray, transfection SN IgG, trimeric HA
[32] = target: recombinant soluble homotrimeric HA, A/Wisconsin/67/05 H3N2 (Influenza A virus A/Wisconsin/67/2005(H3N2)); test: microarray, transfection SN IgG, trimeric HA
[33] = target: recombinant soluble homotrimeric HA, A/chicken/Vietnam/NCVD-016/08 H5N1 (Influenza A virus A/chicken/Vietnam/NCVD-016/2008(H5N1)); test: microarray, transfection SN IgG, trimeric HA
[34] = target: recombinant soluble homotrimeric HA, A/duck/Yangzhou/02/05 H8N4 (Influenza A virus A/duck/Yangzhou/02/2005(H8N4)); test: microarray, transfection SN IgG, trimeric HA
[35] = target: recombinant soluble homotrimeric HA, A/northern shoveler/California/HKWF115/07 H6N4 (Influenza A virus A/northern shoveler/California/HKWF115/2007(H6N1)); test: microarray, transfection SN IgG, trimeric HA
[36] = target: recombinant soluble homotrimeric HA, A/swine/Ontario/01911-2/99 H4N6 (Influenza A virus A/Swine/Ontario/01911-2/99 (H4N6)); test: microarray, transfection SN IgG, trimeric HA
[37] = target: recombinant homotrimeric HA A/Hong Kong/1073/99 H9N2 (Influenza A virus A/Hong Kong/1073/99 (H9N2)); test: protein microarray, purified IgG, trimeric HA
[38] = target: recombinant homotrimeric HA A/northern shoveler/California/HKWF115/07 H6N4 (Influenza A virus A/northern shoveler/California/HKWF115/2007(H6N1)); test: protein microarray, purified IgG, trimeric HA

B1: TCN-545 (5082_I15) (antibody, V domains shown)
VH: QVQLQQWGAGLLKPSETLSLSCAVFGGSFSDYYWTWIRQPPGKGLEWIGEIKHSGRTNYNPSLESRVTISVDTSKNQFSLKLSSVTAADTAIYYCARGTDPDTEGYCRSGSCSAFDFWGQGTLVTVSS
VL: EIVLTQSPGTLSLSPGERATLSCRASHFVNYRSLAWYQQTPGQVPRLLIYGASTRATGIPDRFSGSGSGTDFTLTISRLEPEDFAVYFCQQYGGSPRYTFGQGTRLEIK
Question: What does the source list for B1?
Answer: Trimeric HA Binding: RLU [1]: 157 RLU; Trimeric HA Binding: RLU [2]: 1180 RLU; Trimeric HA Binding: RLU [3]: 235 RLU; Trimeric HA Binding: RLU [4]: 575 RLU; Trimeric HA Binding: RLU [5]: 392 RLU; Trimeric HA Binding: RLU [6]: 672 RLU; Trimeric HA Binding: RLU [7]: 1410 RLU; Trimeric HA Binding: RLU [8]: 262 RLU; Trimeric HA Binding: RLU [9]: 193 RLU; Trimeric HA Binding: RLU [10]: 1400 RLU; Trimeric HA Binding: RLU [11]: 1490 RLU; Trimeric HA Binding: RLU [12]: 289 RLU; Trimeric HA Binding: RLU [13]: 23700 RLU; Trimeric HA Binding: RLU [14]: 679 RLU; Trimeric HA Binding: RLU [15]: 396 RLU; Trimeric HA Binding: RLU [16]: 1360 RLU; Trimeric HA Binding: RLU [17]: 900 RLU; Trimeric HA Binding: RLU [18]: 42900 RLU; Trimeric HA Binding: RLU [19]: 32000 RLU; Trimeric HA Binding: RLU [20]: 3230 RLU; Trimeric HA Binding: RLU [21]: 13200 RLU; Trimeric HA Binding: RLU [22]: 2940 RLU

B2: TCN-549 (5092_P04) (antibody, V domains shown)
VH: QVQLVQSGAEVKKPGASVKVSCKASGYTFTGYYMHWVRQAPGQGLEWMGWINPNSGDTNYAQKFQGRVTMTRDTSITTAYMELSSLRSDDTAVYYCARDSPYSSSWSFFDYWGQGPLVTVSS
VL: not shown
Question: What does the source list for B2?
Answer: Trimeric HA Binding: RLU [23]: 338 RLU; Trimeric HA Binding: RLU [1]: 387 RLU; Trimeric HA Binding: RLU [2]: 1130 RLU; Trimeric HA Binding: RLU [24]: 284 RLU; Trimeric HA Binding: RLU [4]: 30900 RLU; Trimeric HA Binding: RLU [5]: 498 RLU; Trimeric HA Binding: RLU [25]: 1100 RLU; Trimeric HA Binding: RLU [26]: 622 RLU; Trimeric HA Binding: RLU [27]: 18600 RLU; Trimeric HA Binding: RLU [28]: 1080 RLU; Trimeric HA Binding: RLU [29]: 8480 RLU; Trimeric HA Binding: RLU [30]: 640 RLU; Trimeric HA Binding: RLU [31]: 2340 RLU; Trimeric HA Binding: RLU [32]: 51600 RLU; Trimeric HA Binding: RLU [33]: 1600 RLU; Trimeric HA Binding: RLU [34]: 9450 RLU; Trimeric HA Binding: RLU [35]: 996 RLU; Trimeric HA Binding: RLU [36]: 1880 RLU; Trimeric HA Binding: RLU [6]: 196 RLU; Trimeric HA Binding: RLU [7]: 6920 RLU; Trimeric HA Binding: RLU [37]: 450 RLU; Trimeric HA Binding: RLU [10]: 413 RLU; Trimeric HA Binding: RLU [11]: 193 RLU; Trimeric HA Binding: RLU [12]: 72 RLU; Trimeric HA Binding: RLU [13]: 27200 RLU; Trimeric HA Binding: RLU [14]: 177 RLU; Trimeric HA Binding: RLU [15]: 166 RLU; Trimeric HA Binding: RLU [38]: 112 RLU

From patent US20150086555A1
